Measured values taken from paper PMC11522927.

Target: VirC^4A (HMG synthase VirC, Cys114Ala/Gln334Ala/Arg335Ala/Arg338Ala) (Streptomyces virginiae)
Experiment: SEC-SAXS

Work on “VirC^4A (HMG synthase VirC, Cys114Ala/Gln334Ala/Arg335Ala/Arg338Ala) (enzyme)” yielded a stoichiometry N of 2.
